The target of one test is T1, 4H346-bN.
T1 chain: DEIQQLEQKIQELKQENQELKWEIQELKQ
The experiment in a line: two-hybrid library CCNG1.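 Also: natural log of median RNA to DNA barcode read ratio; higher means stronger binding.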

The next test has as its target T2, 4H370-bA.
T2 chain: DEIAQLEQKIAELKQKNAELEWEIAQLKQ
The experiment in a line: two-hybrid library CCNG1.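 Also: natural log of median RNA to DNA barcode read ratio; higher means stronger binding.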

A further test concerns the target T3, 4H3926-bN.
T3 chain: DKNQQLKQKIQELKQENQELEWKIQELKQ
Description: two-hybrid library CCNG1.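 Also: natural log of median RNA to DNA barcode read ratio; higher means stronger binding.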

A further test has as its target T4, 4H4073-bN.
T4 chain: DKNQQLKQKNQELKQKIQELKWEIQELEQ
Description: two-hybrid library CCNG1.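 Also: natural log of median RNA to DNA barcode read ratio; higher means stronger binding.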

In the next test the target is T5, 4H457-bN.
T5 chain: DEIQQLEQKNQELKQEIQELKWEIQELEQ
The experiment in a line: two-hybrid library CCNG1.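 Also: natural log of median RNA to DNA barcode read ratio; higher means stronger binding.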

Another test deals with T6, 4H575-bN.
T6 chain: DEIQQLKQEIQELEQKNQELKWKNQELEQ
Description: two-hybrid library CCNG1.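 Also: natural log of median RNA to DNA barcode read ratio; higher means stronger binding.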

A further test has as its target T7, 4H683-bN.
T7 chain: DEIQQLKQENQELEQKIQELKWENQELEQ
Description: two-hybrid library CCNG1.

In another test the target is T8, 4H72-bH.
T8 chain: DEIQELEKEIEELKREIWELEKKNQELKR
Description: two-hybrid library CCNG1.

The target of a further test is T9, 4H754-bN.
T9 chain: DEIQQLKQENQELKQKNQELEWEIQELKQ
The experiment in a line: two-hybrid library CCNG1.

The target of a further test is T10, 4H780-bN.
T10 chain: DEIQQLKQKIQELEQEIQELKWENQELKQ
Description: two-hybrid library CCNG1.

In a further test the target is T11, 4H797-bN.
T11 chain: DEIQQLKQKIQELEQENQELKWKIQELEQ
The experiment in a line: two-hybrid library CCNG1.

The target in the next test is T12, 4H855-bN.
T12 chain: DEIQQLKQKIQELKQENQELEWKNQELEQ
Description: two-hybrid library CCNG1.

In another test the target is T13, 4H918-bN.
T13 chain: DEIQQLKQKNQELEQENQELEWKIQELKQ
Description: two-hybrid library CCNG1.

A further test concerns the target T14, 4H953-bN.
T14 chain: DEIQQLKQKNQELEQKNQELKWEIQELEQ
Description: two-hybrid library CCNG1.

The target of the next test is T15, 4H968-bN.
T15 chain: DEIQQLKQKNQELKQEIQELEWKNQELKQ
The experiment in a line: two-hybrid library CCNG1.

In another test the target is T16, 4H3381-AA.
T16 chain: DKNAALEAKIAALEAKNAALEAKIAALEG
Description: two-hybrid library CCmax.

For a further test, the target named is T17, 4H3395-AA.
T17 chain: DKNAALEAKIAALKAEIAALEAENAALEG
Description: two-hybrid library CCmax. Conditions: mean of both orientations.

In another test the target is T18, 4H3410-AA.
T18 chain: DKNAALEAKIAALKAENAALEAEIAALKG
Description: two-hybrid library CCmax. To be noted: mean of both orientations.

The next test addresses T19, 4H347-AA.
T19 chain: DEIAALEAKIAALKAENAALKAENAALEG
The experiment in a line: two-hybrid library CCmax. Conditions: mean of both orientations.

For the next test, the target named is T20, 4H3493-AA.
T20 chain: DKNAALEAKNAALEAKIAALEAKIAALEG
The experiment in a line: two-hybrid library CCmax. To be noted: mean of both orientations.

Another test concerns the target T21, 4H3590-AA.
T21 chain: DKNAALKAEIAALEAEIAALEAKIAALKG
Description: two-hybrid library CCmax. Conditions: mean of both orientations.

Another test deals with T22, 4H3697-AA.
T22 chain: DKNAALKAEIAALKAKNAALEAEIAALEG
The experiment in a line: two-hybrid library CCmax. Conditions: mean of both orientations.

A further test concerns the target T23, 4H3753-AA.
T23 chain: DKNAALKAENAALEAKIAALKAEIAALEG
The experiment in a line: two-hybrid library CCmax. Conditions: mean of both orientations.

The next test addresses T24, 4H376-AA.
T24 chain: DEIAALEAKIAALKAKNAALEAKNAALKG
The experiment in a line: two-hybrid library CCmax. To be noted: mean of both orientations.

The next test addresses T25, 4H3865-AA.
T25 chain: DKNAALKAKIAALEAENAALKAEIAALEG
The experiment in a line: two-hybrid library CCmax. To be noted: mean of both orientations.

The next test addresses T26, 4H406-AA.
T26 chain: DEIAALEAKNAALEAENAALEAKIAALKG
The experiment in a line: two-hybrid library CCmax. Conditions: mean of both orientations.

The target in another test is T27, 4H458-AA.
T27 chain: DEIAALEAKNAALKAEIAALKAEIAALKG
The experiment in a line: two-hybrid library CCmax. To be noted: mean of both orientations.

The next test addresses T28, 4H485-AA.
T28 chain: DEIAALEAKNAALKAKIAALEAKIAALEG
The experiment in a line: two-hybrid library CCmax. To be noted: mean of both orientations.

The target of a further test is T29, 4H536-AA.
T29 chain: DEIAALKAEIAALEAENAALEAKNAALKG
The experiment in a line: two-hybrid library CCmax. To be noted: mean of both orientations.

In the next test the target is T30, 4H570-AA.
T30 chain: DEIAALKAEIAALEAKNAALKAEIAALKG
The experiment in a line: two-hybrid library CCmax. To be noted: mean of both orientations.

The target of the next test is T31, 4H629-AA.
T31 chain: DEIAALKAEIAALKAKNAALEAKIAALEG
Description: two-hybrid library CCmax. Conditions: mean of both orientations.

A further test has as its target T32, 4H688-AA.
T32 chain: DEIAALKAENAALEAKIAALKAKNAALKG
Description: two-hybrid library CCmax. To be noted: mean of both orientations.

The target of another test is T33, 4H710-AA.
T33 chain: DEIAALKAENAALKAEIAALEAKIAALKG
Description: two-hybrid library CCmax. Conditions: mean of both orientations.

The target in the next test is T34, 4H745-AA.
T34 chain: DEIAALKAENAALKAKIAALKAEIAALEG
The experiment in a line: two-hybrid library CCmax. Conditions: mean of both orientations.

A further test concerns the target T35, 4H797-AA.
T35 chain: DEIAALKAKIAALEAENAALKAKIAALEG
Description: two-hybrid library CCmax. Conditions: mean of both orientations.

For the next test, the target named is T36, 4H850-AA.
T36 chain: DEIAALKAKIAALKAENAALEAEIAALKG
Description: two-hybrid library CCmax. Conditions: mean of both orientations.

A further test deals with T37, 4H891-AA.
T37 chain: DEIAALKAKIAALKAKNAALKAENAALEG
Description: two-hybrid library CCmax. Conditions: mean of both orientations.

In a further test the target is T38, 4H909-AA.
T38 chain: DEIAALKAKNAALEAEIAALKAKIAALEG
Description: two-hybrid library CCmax. To be noted: mean of both orientations.

Another test concerns the target T39, 4H930-AA.
T39 chain: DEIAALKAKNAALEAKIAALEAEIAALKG
Description: two-hybrid library CCmax. To be noted: mean of both orientations.

The target in the next test is T40, 4H94-AA.
T40 chain: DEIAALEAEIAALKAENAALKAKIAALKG
The experiment in a line: two-hybrid library CCmax. Conditions: mean of both orientations.

Another test addresses T41, 4H963-AA.
T41 chain: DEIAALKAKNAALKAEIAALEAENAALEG
Description: two-hybrid library CCmax. To be noted: mean of both orientations.

For the next test, the target named is T42, APC3265-AA.
T42 chain: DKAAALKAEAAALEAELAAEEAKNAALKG
The experiment in a line: two-hybrid library CCmax.

The next test addresses T43, APC3323-AA.
T43 chain: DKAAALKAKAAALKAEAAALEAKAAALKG
The experiment in a line: two-hybrid library CCmax. To be noted: mean of both orientations.

A further test concerns the target T44, APC3354-AA.
T44 chain: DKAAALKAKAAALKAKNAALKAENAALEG
Description: two-hybrid library CCmax. To be noted: mean of both orientations.

The next test concerns the target T45, APC3881-AA.
T45 chain: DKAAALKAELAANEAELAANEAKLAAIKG
The experiment in a line: two-hybrid library CCmax. To be noted: mean of both orientations.

In another test the target is T46, APC4100-AA.
T46 chain: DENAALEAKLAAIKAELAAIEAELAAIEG
The experiment in a line: two-hybrid library CCmax. To be noted: mean of both orientations.

For a further test, the target named is T47, APC4336-AA.
T47 chain: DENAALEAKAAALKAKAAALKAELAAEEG
The experiment in a line: two-hybrid library CCmax. Conditions: mean of both orientations.

Another test deals with T48, APC5009-AA.
T48 chain: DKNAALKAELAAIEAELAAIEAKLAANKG
The experiment in a line: two-hybrid library CCmax. Conditions: mean of both orientations.

The next test has as its target T49, APC542-AA.
T49 chain: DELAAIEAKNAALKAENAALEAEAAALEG
The experiment in a line: two-hybrid library CCmax. To be noted: mean of both orientations.

The target of a further test is T50, APC5531-AA.
T50 chain: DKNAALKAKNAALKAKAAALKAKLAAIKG
The experiment in a line: two-hybrid library CCmax. To be noted: mean of both orientations.

The target in a further test is T51, APC6088-AA.
T51 chain: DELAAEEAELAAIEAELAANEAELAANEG
The experiment in a line: two-hybrid library CCmax. Conditions: mean of both orientations.

Another test concerns the target T52, APC7524-AA.
T52 chain: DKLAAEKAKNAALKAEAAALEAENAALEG
Description: two-hybrid library CCmax. To be noted: mean of both orientations.

The target in the next test is T53, APC8401-AA.
T53 chain: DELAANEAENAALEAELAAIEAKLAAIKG
Description: two-hybrid library CCmax. To be noted: mean of both orientations.

In the next test the target is T54, APC8516-AA.
T54 chain: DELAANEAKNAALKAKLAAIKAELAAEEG
The experiment in a line: two-hybrid library CCmax. Conditions: mean of both orientations.

The next test deals with T55, APC9141-AA.
T55 chain: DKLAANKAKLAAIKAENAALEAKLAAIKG
Description: two-hybrid library CCmax. To be noted: mean of both orientations.

Another test concerns the target T56, APC9182-AA.
T56 chain: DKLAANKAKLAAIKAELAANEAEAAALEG
The experiment in a line: two-hybrid library CCmax. To be noted: mean of both orientations.

For a further test, the target named is T57, APC9291-AA.
T57 chain: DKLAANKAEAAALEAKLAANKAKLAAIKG
Description: two-hybrid library CCmax. To be noted: mean of both orientations.

In a further test the target is T58, APC9806-AA.
T58 chain: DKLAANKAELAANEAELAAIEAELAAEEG
The experiment in a line: two-hybrid library CCmax. Conditions: mean of both orientations.

For DEIQQLEQKIQELKQENQELKWEIQELKQ [4H346-bN], the interaction score is 1.02 in the test with 4H346-bN; 0.693 in the test with 4H370-bA; 1.53 with 4H3926-bN; -0.58 with 4H4073-bN; -0.931 with 4H457-bN; -0.652 with 4H575-bN. The interaction score is 0.0158 in the test with 4H683-bN; 0.0876 with 4H72-bH; -0.573 with 4H754-bN; 0.0007 in the test with 4H780-bN; -0.125 in the test with 4H797-bN; -0.517 with 4H855-bN. Besides, the interaction score with 4H918-bN was -0.654; in the test with 4H953-bN, -0.533; in the test with 4H968-bN it was -0.647.
In the case of DKNAALEAKIAALEAKNAALEAKIAALEG [4H3381-AA], the interaction score in the test with 4H3381-AA was 0.71; with 4H3395-AA, -1.66; in the test with 4H3410-AA it was -1.09; in the test with 4H347-AA it was -1.55; with 4H3493-AA, -1.77; in the test with 4H3590-AA, -1.02. Moreover, the interaction score was -1.45 with 4H3697-AA; -1.71 with 4H3753-AA; -1.55 with 4H376-AA; -1.52 with 4H3865-AA; -1.15 with 4H406-AA; -1.53 with 4H458-AA. Moreover, the interaction score was -0.941 in the test with 4H485-AA; -1.65 in the test with 4H536-AA; -1.34 with 4H570-AA; -1.4 with 4H629-AA; -1.36 with 4H688-AA; -1.49 with 4H710-AA. Besides, the interaction score with 4H745-AA was -1.6; with 4H797-AA it was -1.57; in the test with 4H850-AA, -1.85; with 4H891-AA, -1.56; with 4H909-AA, -1.66; in the test with 4H930-AA it was -1.38. Also, the interaction score with 4H94-AA was -1.76; with 4H963-AA it was -2.17.
For DKAAALKAEAAALEAELAAEEAKNAALKG [APC3265-AA], the interaction score with APC3265-AA is -1.08; in the test with APC3323-AA, -1.79; with APC3354-AA, -1.86; with APC3881-AA it was -1.45; with APC4100-AA it was -1.05; with APC4336-AA, -1.54. In addition, the interaction score with APC5009-AA was -1.45; in the test with APC542-AA, -1.56; with APC5531-AA, -1.82; with APC6088-AA, -1.89; in the test with APC7524-AA, -1.43; in the test with APC8401-AA, -1.36. For the same molecule, the interaction score with APC8516-AA was -1.33; with APC9141-AA it was -1.63; with APC9182-AA, -1.78; in the test with APC9291-AA it was -1.49; with APC9806-AA, -1.38.

The values are drawn from paper PMC10397247.
